Experimental data as given in the supplement of paper PMC11316812.
± gives the standard deviation of the averaged measurements.

Key:
[1] = test system: hTERT-HMEC; assay: percentage of EdU-negative (G0-arrested) nuclei per well, 72 h; higher = more G0 arrest; details: reference: sequence is the full UniProt precursor, the tested protein was the secreted form or ectodomain
[2] = test system: MCF7; assay: as above; details: reference: sequence is the full UniProt precursor, the tested protein was the secreted form or ectodomain
[3] = protein concentration 0.0322857 µM
[4] = protein concentration 0.322857 µM
[5] = protein concentration 0.00525 µM
[6] = protein concentration 0.0525 µM
[7] = protein concentration 0.0225 µM
[8] = protein concentration 0.0215 µM
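Also: secreted proteins added to cultured cells, EdU pulse at the end, nuclei found by Hoechst imaging, EdU status from nuclear versus surrounding ring intensity ratio, PBS as neutral control.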

Sequence	percentage of EdU-negative [1, 7]	percentage of EdU-negative ([1]; protein concentration 0.225 µM)	percentage of EdU-negative [2, 7]	percentage of EdU-negative ([2]; protein concentration 0.225 µM)	other results
MASYLYGVLFAVGLCAPIYCVSPANAPSAYPRPSSTKSTPASQVYSLNTDFAFRLYRRLVLETPSQNIFFSPVSVSTSLAMLSLGAHSVTKTQILQGLGFNLTHTPESAIHQGFQHLVHSLTVPSKDLTLKMGSALFVKKELQLQANFLGNVKRLYEAEVFSTDFSNPSIAQARINSHVKKKTQGKVVDIIQGLDLLTAMVLVNHIFFKAKWEKPFHPEYTRKNFPFLVGEQVTVHVPMMHQKEQFAFGVDTELNCFVLQMDYKGDAVAFFVLPSKGKMRQLEQALSARTLRKWSHSLQKRWIEVFIPRFSISASYNLETILPKMGIQNVFDKNADFSGIAKRDSLQVSKATHKAVLDVSEEGTEATAATTTKFIVRSKDGPSYFTVSFNRTFLMMITNKATDGILFLGKVENPTKS [Q86WD7]					percentage of EdU-negative [1, 3]: 5.19 ± 0.14%; percentage of EdU-negative [1, 4]: 6.1 ± 0.46%; percentage of EdU-negative [2, 3]: 27.1 ± 1.6%; percentage of EdU-negative [2, 4]: 25.7 ± 0.86%
MATFISVQLKKTSEVDLAKPLVKFIQQTYPSGGEEQAQYCRAAEELSKLRRAAVGRPLDKHEGALETLLRYYDQICSIEPKFPFSENQICLTFTWKDAFDKGSLFGGSVKLALASLGYEKSCVLFNCAALASQIAAEQNLDNDEGLKIAAKHYQFASGAFLHIKETVLSALSREPTVDISPDTVGTLSLIMLAQAQEVFFLKATRDKMKDAIIAKLANQAADYFGDAFKQCQYKDTLPKEVFPVLAAKHCIMQANAEYHQSILAKQQKKFGEEIARLQHAAELIKTVASRYDEYVNVKDFSDKINRALAAAKKDNDFIYHDRVPDLKDLDPIGKATLVKSTPVNVPISQKFTDLFEKMVPVSVQQSLAAYNQRKADLVNRSIAQMREATTLANGVLASLNLPAAIEDVSGDTVPQSILTKSRSVIEQGGIQTVDQLIKELPELLQRNREILDESLRLLDEEEATDNDLRAKFKERWQRTPSNELYKPLRAEGTNFRTVLDKAVQADGQVKECYQSHRDTIVLLCKPEPELNAAIPSANPAKTMQGSEVVNVLKSLLSNLDEVKKEREGLENDLKSVNFDMTSKFLTALAQDGVINEEALSVTELDRVYGGLTTKVQESLKKQEGLLKNIQVSHQEFSKMKQSNNEANLREEVLKNLATAYDNFVELVANLKEGTKFYNELTEILVRFQNKCSDIVFARKTERDELLKDLQQSIAREPSAPSIPTPAYQSSPAGGHAPTPPTPAPRTMPPTKPQPPARPPPPVLPANRAPSATAPSPVGAGTAAPAPSQTPGSAPPPQAQGPPYPTYPGYPGYCQMPMPMGYNPYAYGQYNMPYPPVYHQSPGQAPYPGPQQPSYPFPQPPQQSYYPQQ [Q8WUM4]					percentage of EdU-negative [1, 5]: 4.68 ± 0.54%; percentage of EdU-negative [1, 6]: 4.872 ± 0.012%; percentage of EdU-negative [2, 5]: 24.7 ± 1.5%; percentage of EdU-negative [2, 6]: 25.1 ± 1%
MATHHTLWMGLALLGVLGDLQAAPEAQVSVQPNFQQDKFLGRWFSAGLASNSSWLREKKAALSMCKSVVAPATDGGLNLTSTFLRKNQCETRTMLLQPAGSLGSYSYRSPHWGSTYSVSVVETDYDQYALLYSQGSKGPGEDFRMATLYSRTQTPRAELKEKFTAFCKAQGFTEDTIVFLPQTDKCMTEQ	4.95 ± 1.2%	7.39 ± 0.34%	27.3 ± 2.4%	25.1 ± 1.9%	
MATMENKVICALVLVSMLALGTLAEAQTETCTVAPRERQNCGFPGVTPSQCANKGCCFDDTVRGVPWCFYPNTIDVPPEEECEF					percentage of EdU-negative [1, 8]: 4.62 ± 0.35%; percentage of EdU-negative ([1]; protein concentration 0.215 µM): 5.31 ± 0.26%; percentage of EdU-negative [2, 8]: 25.09 ± 0.25%; percentage of EdU-negative ([2]; protein concentration 0.215 µM): 25 ± 1.6%
MATMVPSVLWPRACWTLLVCCLLTPGVQGQEFLLRVEPQNPVLSAGGSLFVNCSTDCPSSEKIALETSLSKELVASGMGWAAFNLSNVTGNSRILCSVYCNGSQITGSSNITVYRLPERVELAPLPPWQPVGQNFTLRCQVEDGSPRTSLTVVLLRWEEELSRQPAVEEPAEVTATVLASRDDHGAPFSCRTELDMQPQGLGLFVNTSAPRQLRTFVLPVTPPRLVAPRFLEVETSWPVDCTLDGLFPASEAQVYLALGDQMLNATVMNHGDTLTATATATARADQEGAREIVCNVTLGGERREARENLTVFSFLGPIVNLSEPTAHEGSTVTVSCMAGARVQVTLDGVPAAAPGQPAQLQLNATESDDGRSFFCSATLEVDGEFLHRNSSVQLRVLYGPKIDRATCPQHLKWKDKTRHVLQCQARGNPYPELRCLKEGSSREVPVGIPFFVNVTHNGTYQCQASSSRGKYTLVVVMDIEAGSSHFVPVFVAVLLTLGVVTIVLALMYVFREHQRSGSYHVREESTYLPLTSMQPTEAMGEEPSRAE	4.98 ± 0.59%	16.4 ± 1.8%	25.2 ± 0.75%	28 ± 1.2%	
MATSMGLLLLLLLLLTQPGAGTGADTEAVVCVGTACYTAHSGKLSAAEAQNHCNQNGGNLATVKSKEEAQHVQRVLAQLLRREAALTARMSKFWIGLQREKGKCLDPSLPLKGFSWVGGGEDTPYSNWHKELRNSCISKRCVSLLLDLSQPLLPSRLPKWSEGPCGSPGSPGSNIEGFVCKFSFKGMCRPLALGGPGQVTYTTPFQTTSSSLEAVPFASAANVACGEGDKDETQSHYFLCKEKAPDVFDWGSSGPLCVSPKYGCNFNNGGCHQDCFEGGDGSFLCGCRPGFRLLDDLVTCASRNPCSSSPCRGGATCVLGPHGKNYTCRCPQGYQLDSSQLDCVDVDECQDSPCAQECVNTPGGFRCECWVGYEPGGPGEGACQDVDECALGRSPCAQGCTNTDGSFHCSCEEGYVLAGEDGTQCQDVDECVGPGGPLCDSLCFNTQGSFHCGCLPGWVLAPNGVSCTMGPVSLGPPSGPPDEEDKGEKEGSTVPRAATASPTRGPEGTPKATPTTSRPSLSSDAPITSAPLKMLAPSGSPGVWREPSIHHATAASGPQEPAGGDSSVATQNNDGTDGQKLLLFYILGTVVAILLLLALALGLLVYRKRRAKREEKKEKKPQNAADSYSWVPERAESRAMENQYSPTPGTDC [Q9NPY3]	5.36 ± 0.65%	4.92 ± 0.54%	25.7 ± 0.77%	26.9 ± 0.77%	
MAVAAAAAAAGPAGAGGGRAQRSGLLEVLVRDRWHKVLVNLSEDALVLSSEEGAAAYNGIGTATNGSFCRGAGAGHPGAGGAQPPDSPAGVRTAFTDLPEQVPESISNQKRGVKVLKQELGGLGISIKGGKENKMPILISKIFKGLAADQTQALYVGDAILSVNGADLRDATHDEAVQALKRAGKEVLLEVKYMREATPYVKKGSPVSEIGWETPPPESPRLGGSTSDPPSSQSFSFHRDRKSIPLKMCYVTRSMALADPENRQLEIHSPDAKHTVILRSKDSATAQAWFSAIHSNVNDLLTRVIAEVREQLGKTGIAGSREIRHLGWLAEKVPGESKKQWKPALVVLTEKDLLIYDSMPRRKEAWFSPVHTYPLLATRLVHSGPGKGSPQAGVDLSFATRTGTRQGIETHLFRAETSRDLSHWTRSIVQGCHNSAELIAEISTACTYKNQECRLTIHYENGFSITTEPQEGAFPKTIIQSPYEKLKMSSDDGIRMLYLDFGGKDGEIQLDLHSCPKPIVFIIHSFLSAKITRLGLVA	4.71 ± 0.2%	6.28 ± 0.64%	27.8 ± 2.2%	25.6 ± 0.97%	
